Paper PMC5575267, “A novel function of cIAP1 as a mediator of CHIP-driven eIF4E regulation” (Scientific Reports, 2017)
Numbering of substitutions follows the chain as printed. Names and notes keep the numbering of the source.

B1: GST-CHIP WT (natural protein, UniProt Q9UNE7 1-303, looked up)
chain: MKGKEEKEGGARLGAGGGSPEKSPSAQELKEQGNRLFVGRKYPEAAACYGRAITRNPLVAVYYTNRALCYLKMQQHEQALADCRRALELDGQSVKAHFFLGQCQLEMESYDEAIANLQRAYSLAKEQRLNFGDDIPSALRIAKKKRWNSIEERRIHQESELHSYLSRLIAAERERELEECQRNHEGDEDDSHVRAQQACIEAKHDKYMADMDELFSQVDEKRKKRDIPDYLCGKISFELMREPCITPSGITYDRKDIEEHLQRVGHFDPVTRSPLTQEQLIPNLAMKEVIDAFISENGWVEDY
notes: source: bacteria, purified (cloned into pGEX4T-1)
B2: CHIP WT-6His (natural protein, UniProt Q9UNE7 1-303, looked up)
chain: B1 chain
notes: also called CHIP-6His (WT); source: bacteria, purified (cloned into pET 23a)
B3: CHIP K30A-6His (natural protein, UniProt Q9UNE7 1-303, looked up)
chain: B1 chain with K30A
notes: also called CHIP-6His (K30A); source: bacteria, purified (cloned into pET 23a)

Legend:
GST-cIAP1 [1] = biological target: T1, GST-cIAP1 (human, UniProt Q13490 1-618); assay: pull-down; His-tag pull-down: eIF4E-6His beads pre-incubated with GST-cIAP1 (also in increasing amounts), then incubated with GST-CHIP or GST alone; WB with anti-GST antibody; details: both partners purified
T1 construct: also called GST-cIAP1 beads; source: bacteria, purified (cloned into pGEX4T-1)
T1 sequence (Q13490 whole entry): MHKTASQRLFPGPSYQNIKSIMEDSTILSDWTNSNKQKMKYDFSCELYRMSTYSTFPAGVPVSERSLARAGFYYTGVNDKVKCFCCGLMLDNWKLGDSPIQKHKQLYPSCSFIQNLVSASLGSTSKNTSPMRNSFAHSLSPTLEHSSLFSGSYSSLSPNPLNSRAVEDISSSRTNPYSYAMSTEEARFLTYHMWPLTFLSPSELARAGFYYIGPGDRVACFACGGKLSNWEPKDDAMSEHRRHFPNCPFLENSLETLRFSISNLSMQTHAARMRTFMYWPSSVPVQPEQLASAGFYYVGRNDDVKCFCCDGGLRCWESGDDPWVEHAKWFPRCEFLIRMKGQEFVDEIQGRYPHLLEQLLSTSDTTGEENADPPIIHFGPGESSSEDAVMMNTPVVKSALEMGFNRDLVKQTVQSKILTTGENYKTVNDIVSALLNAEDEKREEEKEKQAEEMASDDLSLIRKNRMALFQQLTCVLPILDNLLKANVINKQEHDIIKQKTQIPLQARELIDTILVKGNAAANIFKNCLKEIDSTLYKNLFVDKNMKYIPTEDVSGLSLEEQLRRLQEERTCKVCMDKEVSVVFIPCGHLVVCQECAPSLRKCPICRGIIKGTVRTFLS

GST-cIAP1 [2] = biological target: T1, GST-cIAP1; assay: pull-down; GST pull-down: GST or GST fusion protein on glutathione beads incubated with 6His-tagged protein in 100 mM Tris pH 8.0, 100 mM NaCl, 2 mM EDTA, 5% glycerol, 2 h at 4 °C; WB with anti-His antibody; details: both partners purified

Row | Binder | binding result (GST-cIAP1 [1]) | binding result (GST-cIAP1 [2])
1 | B1 | binds | –
2 | B2 | – | binds
3 | B3 | – | binds
